Values quoted from earlier work, collected in publication PMC6784060.

Target: Beclin-1 BH3 (Homo sapiens) (UniProt Q14457)
UniProt Q14457, sequence (Q14457 107-127): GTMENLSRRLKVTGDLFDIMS

## Bcl-xL (from UniProt Q07817)
  Kd: 1700 nM
